The values that follow come from PMC2171850.

The target in this assay is Hrp65, endogenous in C. tentans tissue culture cells (C. tentans (endogenous in C. tentans tissue culture cells)). Description: co-IP.

“Hrp59, endogenous in C. tentans tissue culture cells (natural protein)” displayed a percent of the association that is RNase-sensitive of 50%.
